Consider one substance from publication PMC7710607.

For this assay, the target named is ACSL1 (UniProt P41216). In words: co-IP of tagged proteins, blot. The note with it: reference: wild type TBK1; sites S172.

On to “TBK1 (flag-human TBK1) (from UniProt Q9UHD2) S172A”, for which the “binding against the reference” value was “stronger”.
